The target in experiment [1] is human FcγRIIIa (FIG. 41 data; allotype not given) (human) (UniProt P08637). Nature of the experiment: AlphaScreen competition.
Experiment [2] deals with FcγRIIIa on human PBMCs expressing heterozygous V158/F158 FcγRIIIa (human) (UniProt P08637). Kind of experiment: cell-based or functional assay.
Chain of FcγRIIIa on human PBMCs expressing heterozygous V158/F158 FcγRIIIa (human) (P08637 17-254): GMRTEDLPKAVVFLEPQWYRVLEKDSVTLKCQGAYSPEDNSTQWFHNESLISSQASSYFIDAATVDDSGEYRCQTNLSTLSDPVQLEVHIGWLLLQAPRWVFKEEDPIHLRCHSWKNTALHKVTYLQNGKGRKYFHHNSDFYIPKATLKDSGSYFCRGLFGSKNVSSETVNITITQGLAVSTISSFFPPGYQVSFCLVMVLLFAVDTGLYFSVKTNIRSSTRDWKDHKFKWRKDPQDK

Chain of human FcγRIIIa (FIG. 41 data; allotype not given) (human) (P08637 17-208): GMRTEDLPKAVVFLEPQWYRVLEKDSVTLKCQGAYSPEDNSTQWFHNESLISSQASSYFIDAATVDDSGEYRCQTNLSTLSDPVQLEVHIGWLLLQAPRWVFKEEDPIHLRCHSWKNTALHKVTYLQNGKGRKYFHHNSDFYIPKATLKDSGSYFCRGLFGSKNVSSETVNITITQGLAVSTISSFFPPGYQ

In experiment [1], “S239D/A330L/I332E Fc variant (FIG. 41 data, antibody context not told in the text)” displayed a FcγRIIIa-fold of 139 fold and a FcγRIIIa-fold:FcγRIIb-fold of 18.
The substance “S239D/I332E Fc variant (FIG. 41 data, antibody context not told in the text)” gave a FcγRIIIa-fold in experiment [1] of 192 fold.
In experiment [2], S239D/I332E alemtuzumab (antibody) registered an ADCC EC50, DoHH-2 target cells of 3 ng/mL; an ADCC Fold WT, DoHH-2 target cells of 3.3 fold; an ADCC log(EC50), DoHH-2 target cells of 0.49.
As to V264I/I332E alemtuzumab (antibody), in experiment [2], the ADCC EC50, DoHH-2 target cells was determined as 4 ng/mL and the ADCC log(EC50), DoHH-2 target cells turned out to be 0.6.

Source of the values: patent US20070248602A1.
